The target in assay [1] is T1, TGFβ3 (R&D Systems) (Homo sapiens (Human), UniProt P10600 301-412, Active TGFβ3 is a disulfide-linked homodimer of this chain; one copy is given.).
T1 construct: also called TGFB3
T1 sequence: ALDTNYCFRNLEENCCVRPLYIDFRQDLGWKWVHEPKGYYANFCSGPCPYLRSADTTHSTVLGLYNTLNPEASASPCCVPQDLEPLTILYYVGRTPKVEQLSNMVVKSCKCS
Nature of the assay: SPR full titration.

The target in assay [2] is T2, TGFβ2 (R&D Systems).
T2 construct: also called TGFB2
T2 sequence (P61812 303-414, species assumed, looked up): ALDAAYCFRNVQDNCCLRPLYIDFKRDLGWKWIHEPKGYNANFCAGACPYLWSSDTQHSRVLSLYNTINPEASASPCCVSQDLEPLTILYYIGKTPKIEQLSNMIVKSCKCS
Kind of assay: SPR full titration.

Assay [3] addresses T3, TGFβ1 (R&D Systems).
T3 construct: also called TGFB1
Kind of assay: SPR full titration.

The target of assay [4] is T1, TGFβ3 (R&D Systems). Nature of the assay: cell-based or functional assay.
The target in assay [5] is T2, TGFβ2 (R&D Systems). Kind of assay: cell-based or functional assay.
Assay [6] concerns the target T3, TGFβ1 (R&D Systems). Kind of assay: cell-based or functional assay.

T3 sequence (P01137 279-390): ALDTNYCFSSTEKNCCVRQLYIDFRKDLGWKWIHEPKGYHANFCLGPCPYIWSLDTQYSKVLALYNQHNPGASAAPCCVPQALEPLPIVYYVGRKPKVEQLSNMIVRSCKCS

B1: affinity matured HcLb 189 (antibody, V domains shown)
VH: EVQLVQSGAEVKKPGASVKVSCKTSGYTFITYWMNWVRQAPGAGLDWMGQIFPAWGSTNYNEMFEGRVTLTADTSTSTAYMELSSLRAGDIAVYYCARGYGNYALDAMDYWGQGTLVTVSS
VL: DIVMTQTPPSLSVSPRETASISCRASESVDSYGNSFMHWYLQKPGQSPQLLIYLASNLESGVSDRFSGSGSGTDFTLRISRVEANDTGVYYCQQNDEDPLSFGQGTK
notes: full IgG; also called canHcLb/S55W/D100Y + canHcLb/237ND/242TS
As a reminder, the Kd is a measure of binding affinity in units of concentration. Low readings indicate tighter binding, high ones weaker binding. For B1, the Kd with TGFβ3 (R&D Systems) [1] turned out to be 0.226 nM; in the assay with TGFβ2 (R&D Systems) [2], 0.922 nM; in the assay with TGFβ1 (R&D Systems) [3] it was 2.65 nM. Besides, the “pSmad-3, IC50” value turned out to be 2.13 nM in the assay with TGFβ3 (R&D Systems) [4], 3.29 nM with TGFβ2 (R&D Systems) [5] and 2.21 nM in the assay with TGFβ1 (R&D Systems) [6].

B2: affinity matured HcLb 237 (antibody, V domains shown)
VH: EVQLVQSGAEVKKPGASVKVSCKTSGYTFITYWMNWVRQAPGAGLDWMGQIFPAWGVTNYNEMFEGRVTLTADTSTSTAYMELSSLRAGDIAVYYCARGYGNYALDAMDYWGQGTLVTVSS
VL: DIVMTQTPPSLSVSPRETASISCRASESVDSYGNSFMHWYLQKPGQSPQLLIYLASNLESGVSDRFSGSGSGTDFTLRISRVEANDTGVYYCQQNDEDPLSFGQGTK
notes: full IgG; also called canHcLb/55SW/100DY/57/SV + canHcLb/237ND/242TS
On to B2, for which the results for the Kd in the assay with TGFβ3 (R&D Systems) [1], with TGFβ2 (R&D Systems) [2] and with TGFβ1 (R&D Systems) [3] were 0.476 nM, 4.07 nM and 2.27 nM, respectively. The “pSmad-3, IC50” value with TGFβ3 (R&D Systems) [4] stood at 1.05 nM; with TGFβ2 (R&D Systems) [5] it was 1.6 nM; with TGFβ1 (R&D Systems) [6], 0.76 nM.

B3: affinity matured HcLb 188 (antibody, V domains shown)
VH: EVQLVQSGAEVKKPGASVKVSCKTSGYTFITYWMNWVRQAPGAGLDWMGQIFPAWGSTNYNEMFEGRVTLTADTSTSTAYMELSSLRAGDIAVYYCARGYGNYALDAMDYWGQGTLVTVSS
VL: DIVMTQTPPSLSVSPRETASISCRASESVDSYGNSFMHWYLQKPGQSPQLLIYLASNLESGVSDRFSGSGSGTDFTLRISRVEANDTGVYYCQQNNEDPLTFGQ
notes: full IgG; constant regions not restated
For B3, the Kd with TGFβ3 (R&D Systems) [1] is 0.417 nM; in the assay with TGFβ2 (R&D Systems) [2], 0.937 nM; in the assay with TGFβ1 (R&D Systems) [3], 3.96 nM. Besides, the entries for the “pSmad-3, IC50” value with TGFβ3 (R&D Systems) [4], with TGFβ2 (R&D Systems) [5] and with TGFβ1 (R&D Systems) [6] were 1.46 nM, 2.29 nM and 2.73 nM, respectively.

B4: affinity matured HcLb 261 (antibody, V domains shown)
VH: EVQLVQSGAEVKKPGASVKVSCKTSGYTFMTYWMNWVRQAPGAGLDWMGQIFPAWGSTNYNEMFEGRVTLTADTSTSTAYMELSSLRAGDIAVYYCARGYGNYALDAMDYWGQGTLVTVSS
VL: DIVMTQTPPSLSVSPRETASISCRASESVDSYGNSFMHWYLQKPGQSPQLLIYLASNLESGVSDRFSGSGSGTDFTLRISRVEANDTGVYYCQQNNEDPLTFGQ
notes: as for B3
Turning to B4, the Kd in the assay with TGFβ3 (R&D Systems) [1] came out at 0.87 nM; with TGFβ2 (R&D Systems) [2], 3.92 nM; with TGFβ1 (R&D Systems) [3] it was 6.18 nM. Further, the “pSmad-3, IC50” value with TGFβ3 (R&D Systems) [4] turned out to be 1.2 nM; with TGFβ2 (R&D Systems) [5], 1.15 nM; in the assay with TGFβ1 (R&D Systems) [6] it was 0.69 nM.

B5: affinity matured HcLb 262 (antibody, V domains shown)
VH: EVQLVQSGAEVKKPGASVKVSCKTSGYTFIKYWMNWVRQAPGAGLDWMGQIFPAWGSTNYNEMFEGRVTLTADTSTSTAYMELSSLRAGDIAVYYCARGYGNYALDAMDYWGQGTLVTVSS
VL: DIVMTQTPPSLSVSPRETASISCRASESVDSYGNSFMHWYLQKPGQSPQLLIYLASNLESGVSDRFSGSGSGTDFTLRISRVEANDTGVYYCQQNNEDPLTFGQ
notes: as for B3
With B5, the Kd with TGFβ3 (R&D Systems) [1] was 0.856 nM; with TGFβ2 (R&D Systems) [2], 6.73 nM; with TGFβ1 (R&D Systems) [3], 6.18 nM. For the same molecule, the “pSmad-3, IC50” value was 1.37 nM with TGFβ3 (R&D Systems) [4], 1.85 nM with TGFβ2 (R&D Systems) [5] and 3.16 nM in the assay with TGFβ1 (R&D Systems) [6].

B6: affinity matured HcLb 258 (antibody, V domains shown)
VH: EVQLVQSGAEVKKPGASVKVSCKTSGYTFMKYWMNWVRQAPGAGLDWMGQIFPAWGSTNYNEMFEGRVTLTADTSTSTAYMELSSLRAGDIAVYYCARGYGNYALDAMDYWGQGTLVTVSS
VL: DIVMTQTPPSLSVSPRETASISCRASESVDSYGNSFMHWYLQKPGQSPQLLIYLASNLESGVSDRFSGSGSGTDFTLRISRVEANDTGVYYCQQNNEDPLTFGQ
notes: as for B3
For the molecule B6, the figures for the Kd with TGFβ3 (R&D Systems) [1], with TGFβ2 (R&D Systems) [2] and in the assay with TGFβ1 (R&D Systems) [3] were 8.6 nM, 4.4 nM and 3.81 nM, respectively. In addition, the “pSmad-3, IC50” value with TGFβ3 (R&D Systems) [4] was determined as 1.09 nM; with TGFβ2 (R&D Systems) [5], 0.79 nM; with TGFβ1 (R&D Systems) [6] it was 0.61 nM.

B7: affinity matured HcLb 259 (antibody, V domains shown)
VH: EVQLVQSGAEVKKPGASVKVSCKTSGYTFITYWMNWVRQAPGAGLDWMGQIFPAWGMTNYNEMFEGRVTLTADTSTSTAYMELSSLRAGDIAVYYCARGYGNYALDAMDYWGQGTLVTVSS
VL: DIVMTQTPPSLSVSPRETASISCRASESVDSYGNSFMHWYLQKPGQSPQLLIYLASNLESGVSDRFSGSGSGTDFTLRISRVEANDTGVYYCQQNNEDPLTFGQ
notes: as for B3
Take B7: the Kd with TGFβ3 (R&D Systems) [1] was 0.78 nM; in the assay with TGFβ2 (R&D Systems) [2], 3.75 nM; with TGFβ1 (R&D Systems) [3] it was 3.05 nM. The “pSmad-3, IC50” value with TGFβ3 (R&D Systems) [4] was determined as 1.48 nM; with TGFβ2 (R&D Systems) [5] it was 1.37 nM; in the assay with TGFβ1 (R&D Systems) [6], 0.99 nM.

B8: affinity matured HcLb 239 (antibody, V domains shown)
VH: EVQLVQSGAEVKKPGASVKVSCKTSGYTFIKYWMNWVRQAPGAGLDWMGQIFPAWGSTNYNEMFEGRVTLTADTSTSTAYMELSSLRAGDIAVYYCARGYGNYALDAMDYWGQGTLVTVSS
VL: DIVMTQTPPSLSVSPRETASISCRASESVDSYGNSFMHWYLQKPGQSPQLLIYLASNLESGVSDRFSGSGSGTDFTLRISRVEANDTGVYYCQQNDEDPLSFGQGTK
notes: full IgG; also called canHcLb/55SW/100DY/31/TK + canHcLb/237ND/242TS
B8: the Kd was 0.431 nM with TGFβ3 (R&D Systems) [1], 6.44 nM in the assay with TGFβ2 (R&D Systems) [2] and 3.53 nM with TGFβ1 (R&D Systems) [3]. Moreover, the “pSmad-3, IC50” value in the assay with TGFβ3 (R&D Systems) [4] stood at 1.54 nM; with TGFβ2 (R&D Systems) [5] it was 5.42 nM; with TGFβ1 (R&D Systems) [6], 1.43 nM.

B9: affinity matured HcLb 257 (antibody, V domains shown)
VH: EVQLVQSGAEVKKPGASVKVSCKTSGYTFMKYWMNWVRQAPGAGLDWMGQIFPAWGSTNYNEMFEGRVTLTADTSTSTAYMELSSLRAGDIAVYYCARGYGNYALDAMDYWGQGTLVTVSS
VL: DIVMTQTPPSLSVSPRETASISCRASESVDSYGNSFMHWYLQKPGQSPQLLIYLASNLESGVSDRFSGSGSGTDFTLRISRVEANDTGVYYCQQNDEDPLSFGQGTK
notes: full IgG; also called canHcLb/55SW/100DY/30IM/31TK + canHcLb/237ND/242TS
As for B9, the Kd worked out at 0.649 nM with TGFβ3 (R&D Systems) [1], 4.72 nM in the assay with TGFβ2 (R&D Systems) [2] and 2.03 nM with TGFβ1 (R&D Systems) [3]. The “pSmad-3, IC50” value was found to be 1.6 nM with TGFβ3 (R&D Systems) [4], 2.02 nM with TGFβ2 (R&D Systems) [5] and 0.7 nM in the assay with TGFβ1 (R&D Systems) [6].

B10: affinity matured HcLb 233 (antibody, V domains shown)
VH: EVQLVQSGAEVKKPGASVKVSCKTSGYTFITYWMNWVRQAPGAGLDWMGQIFPAWGMTNYNEMFEGRVTLTADTSTSTAYMELSSLRAGDIAVYYCARGYGNYALDAMDYWGQGTLVTVSS
VL: DIVMTQTPPSLSVSPRETASISCRASESVDSYGNSFMHWYLQKPGQSPQLLIYLASNLESGVSDRFSGSGSGTDFTLRISRVEANDTGVYYCQQNDEDPLSFGQGTK
notes: full IgG; also called canHcLb/55SW/100DY/57/SM + canHcLb/237ND/242TS
Regarding B10, the Kd in the assay with TGFβ3 (R&D Systems) [1] is 0.457 nM; with TGFβ2 (R&D Systems) [2], 3.98 nM; with TGFβ1 (R&D Systems) [3] it was 2.03 nM. The “pSmad-3, IC50” value with TGFβ3 (R&D Systems) [4] was determined as 1.33 nM; in the assay with TGFβ2 (R&D Systems) [5], 1.68 nM; with TGFβ1 (R&D Systems) [6], 0.71 nM.

B11: affinity matured HcLb 217 (antibody, V domains shown)
VH: EVQLVQSGAEVKKPGASVKVSCKTSGYTFMTYWMNWVRQAPGAGLDWMGQIFPAWGSTNYNEMFEGRVTLTADTSTSTAYMELSSLRAGDIAVYYCARGYGNYALDAMDYWGQGTLVTVSS
VL: DIVMTQTPPSLSVSPRETASISCRASESVDSYGNSFMHWYLQKPGQSPQLLIYLASNLESGVSDRFSGSGSGTDFTLRISRVEANDTGVYYCQQNDEDPLSFGQGTK
notes: full IgG; also called canHcLb/S55W/D100Y/I30/M + canHcLb/237ND/242TS
In the case of B11, the values for the Kd in the assay with TGFβ3 (R&D Systems) [1], with TGFβ2 (R&D Systems) [2] and in the assay with TGFβ1 (R&D Systems) [3] were 0.676 nM, 3.91 nM and 2.58 nM, respectively. Moreover, the figures for the “pSmad-3, IC50” value with TGFβ3 (R&D Systems) [4], in the assay with TGFβ2 (R&D Systems) [5] and with TGFβ1 (R&D Systems) [6] were 1.44 nM, 1.71 nM and 0.78 nM, respectively.
